Test results as given in patent publication US11419921B2, “Methods of treating neurological disorders” (EnClear Therapies, Inc., priority 2018, dated 2022).

Test system: (GR)10
Experiment: Cleavage of (GR)10 by enzymes in solution (PBS with CaCl2 and MgCl2), LC/MS of GR repeats
Format: biochemical
Conditions: for (GR)1 concentration / (GR)2 concentration / (GR)3 concentration / (GR)4 concentration / (GR)5 concentration / (GR)6 concentration / (GR)8 concentration / (GR)10 concentration: (GR)10 50 μM; for (GR)1 / (GR)2 / (GR)3 / (GR)4 / (GR)5 / (GR)6 / (GR)8 / (GR)10: PBS, normalized
Protocol: • (GR)10 dipeptide (also (GR)8, (GR)6, (GR)4, (GR)2) were synthetized by solid-phase synthesis by CanPeptide; All peptides are uncapped and supplied lyophilized with TFA as counter ions. Purity was always above 95%. • Buffer: PBS buffer containing CaCl2 and MgCl2. • Stock solution of enzyme (e.g., 10 mg/mL) (prepared per manufacturer instructions) in PBS. Activators added as necessary. • Working solution of protein of the desired concentration (e.g., 100 μg/mL) prepared immediately before use by diluting the stock solution (e.g., 5 μL of 10 mg/mL stock solution) in PBS buffer (e.g., in 495 μL of PBS). Exemplary Procedure Using 50 μM Concentrations of (GR)10
25 μL of a 100 μM solution of (GR)10 was added to each well of a 96-well plate. 25 μL of a solution of enzyme (two times the desired final enzyme concentration) was added, and the plates were incubated at room temperature. At the specified time points (5 minutes, 10 minutes, 30 minutes, 60 minutes, and 180 minutes) 2.5 μL of a 10% TFA solution were added to stop the reaction. For the time 0 min well, the TFA was added to the well before addition of the enzyme. After last time point, all samples were further diluted with 150 μL of dilution solution. The quenched reaction mixtures were analyzed by LC/MS to determine the concentration of GR repeats of different lengths.
The chromatography and mass spectrometry conditions utilized are shown in Table 2 and Table 3, respectively.

(GR)1 concentration (enzyme 2.5 μg/mL, 0 min): BLQ
(GR)2 concentration (enzyme 2.5 μg/mL, 0 min): BLQ
(GR)3 concentration (enzyme 2.5 μg/mL, 0 min): BLQ
(GR)4 concentration (enzyme 2.5 μg/mL, 0 min): BLQ
(GR)5 concentration (enzyme 2.5 μg/mL, 0 min): BLQ
(GR)6 concentration (enzyme 2.5 μg/mL, 0 min): BLQ
(GR)8 concentration (enzyme 2.5 μg/mL, 0 min): 0.5 µM
(GR)10 concentration (enzyme 2.5 μg/mL, 0 min): 52.8 µM
(GR)1 concentration (enzyme 2.5 μg/mL, 5 min): 114.3 µM
(GR)2 concentration (enzyme 2.5 μg/mL, 5 min): 157.8 µM
(GR)3 concentration (enzyme 2.5 μg/mL, 5 min): 0.1 µM
(GR)4 concentration (enzyme 2.5 μg/mL, 5 min): BLQ
(GR)5 concentration (enzyme 2.5 μg/mL, 5 min): BLQ
(GR)6 concentration (enzyme 2.5 μg/mL, 5 min): BLQ
(GR)8 concentration (enzyme 2.5 μg/mL, 5 min): 0.1 µM
(GR)10 concentration (enzyme 2.5 μg/mL, 5 min): 2.2 µM
(GR)1 concentration (enzyme 2.5 μg/mL, 10 min): 124.7 µM
(GR)2 concentration (enzyme 2.5 μg/mL, 10 min): 167.7 µM
(GR)3 concentration (enzyme 2.5 μg/mL, 10 min): 0.1 µM
(GR)4 concentration (enzyme 2.5 μg/mL, 10 min): BLQ
(GR)5 concentration (enzyme 2.5 μg/mL, 10 min): BLQ
(GR)6 concentration (enzyme 2.5 μg/mL, 10 min): BLQ
(GR)8 concentration (enzyme 2.5 μg/mL, 10 min): BLQ
(GR)10 concentration (enzyme 2.5 μg/mL, 10 min): BLQ
(GR)1 concentration (enzyme 2.5 μg/mL, 30 min): 137.7 µM
(GR)2 concentration (enzyme 2.5 μg/mL, 30 min): 144.9 µM
(GR)3 concentration (enzyme 2.5 μg/mL, 30 min): BLQ
(GR)4 concentration (enzyme 2.5 μg/mL, 30 min): BLQ
(GR)5 concentration (enzyme 2.5 μg/mL, 30 min): BLQ
(GR)6 concentration (enzyme 2.5 μg/mL, 30 min): BLQ
(GR)8 concentration (enzyme 2.5 μg/mL, 30 min): BLQ
(GR)10 concentration (enzyme 2.5 μg/mL, 30 min): BLQ
(GR)1 concentration (enzyme 2.5 μg/mL, 60 min): 163.2 µM
(GR)2 concentration (enzyme 2.5 μg/mL, 60 min): 134.1 µM
(GR)3 concentration (enzyme 2.5 μg/mL, 60 min): BLQ
(GR)4 concentration (enzyme 2.5 μg/mL, 60 min): BLQ
(GR)5 concentration (enzyme 2.5 μg/mL, 60 min): BLQ
(GR)6 concentration (enzyme 2.5 μg/mL, 60 min): BLQ
(GR)8 concentration (enzyme 2.5 μg/mL, 60 min): BLQ
(GR)10 concentration (enzyme 2.5 μg/mL, 60 min): BLQ
(GR)1 concentration (enzyme 2.5 μg/mL, 120 min): 215.2 µM
(GR)2 concentration (enzyme 2.5 μg/mL, 120 min): 107.7 µM
(GR)3 concentration (enzyme 2.5 μg/mL, 120 min): BLQ
(GR)4 concentration (enzyme 2.5 μg/mL, 120 min): BLQ
(GR)5 concentration (enzyme 2.5 μg/mL, 120 min): BLQ
(GR)6 concentration (enzyme 2.5 μg/mL, 120 min): BLQ
(GR)8 concentration (enzyme 2.5 μg/mL, 120 min): BLQ
(GR)10 concentration (enzyme 2.5 μg/mL, 120 min): BLQ
(GR)1 concentration (enzyme 10 μg/mL, 0 min): 0.1 µM
(GR)2 concentration (enzyme 10 μg/mL, 0 min): BLQ
(GR)3 concentration (enzyme 10 μg/mL, 0 min): BLQ
(GR)4 concentration (enzyme 10 μg/mL, 0 min): BLQ
(GR)5 concentration (enzyme 10 μg/mL, 0 min): BLQ
(GR)6 concentration (enzyme 10 μg/mL, 0 min): BLQ
(GR)8 concentration (enzyme 10 μg/mL, 0 min): 0.5 µM
(GR)10 concentration (enzyme 10 μg/mL, 0 min): 48.9 µM
(GR)1 concentration (enzyme 10 μg/mL, 5 min): 124.4 µM
(GR)2 concentration (enzyme 10 μg/mL, 5 min): 138.9 µM
(GR)3 concentration (enzyme 10 μg/mL, 5 min): BLQ
(GR)4 concentration (enzyme 10 μg/mL, 5 min): BLQ
(GR)5 concentration (enzyme 10 μg/mL, 5 min): BLQ
(GR)6 concentration (enzyme 10 μg/mL, 5 min): BLQ
(GR)8 concentration (enzyme 10 μg/mL, 5 min): BLQ
(GR)10 concentration (enzyme 10 μg/mL, 5 min): 2.0 µM
(GR)1 concentration (enzyme 10 μg/mL, 10 min): 156.5 µM
(GR)2 concentration (enzyme 10 μg/mL, 10 min): 148.1 µM
(GR)3 concentration (enzyme 10 μg/mL, 10 min): BLQ
(GR)4 concentration (enzyme 10 μg/mL, 10 min): BLQ
(GR)5 concentration (enzyme 10 μg/mL, 10 min): BLQ
(GR)6 concentration (enzyme 10 μg/mL, 10 min): BLQ
(GR)8 concentration (enzyme 10 μg/mL, 10 min): BLQ
(GR)10 concentration (enzyme 10 μg/mL, 10 min): BLQ
(GR)1 concentration (enzyme 10 μg/mL, 30 min): 212.6 µM
(GR)2 concentration (enzyme 10 μg/mL, 30 min): 110.1 µM
(GR)3 concentration (enzyme 10 μg/mL, 30 min): BLQ
(GR)4 concentration (enzyme 10 μg/mL, 30 min): BLQ
(GR)5 concentration (enzyme 10 μg/mL, 30 min): BLQ
(GR)6 concentration (enzyme 10 μg/mL, 30 min): BLQ
(GR)8 concentration (enzyme 10 μg/mL, 30 min): BLQ
(GR)10 concentration (enzyme 10 μg/mL, 30 min): BLQ
(GR)1 concentration (enzyme 10 μg/mL, 60 min): 289.7 µM
(GR)2 concentration (enzyme 10 μg/mL, 60 min): 58.6 µM
(GR)3 concentration (enzyme 10 μg/mL, 60 min): BLQ
(GR)4 concentration (enzyme 10 μg/mL, 60 min): BLQ
(GR)5 concentration (enzyme 10 μg/mL, 60 min): BLQ
(GR)6 concentration (enzyme 10 μg/mL, 60 min): BLQ
(GR)8 concentration (enzyme 10 μg/mL, 60 min): BLQ
(GR)10 concentration (enzyme 10 μg/mL, 60 min): BLQ
(GR)1 concentration (enzyme 10 μg/mL, 120 min): 349.9 µM
(GR)2 concentration (enzyme 10 μg/mL, 120 min): 10.7 µM
(GR)3 concentration (enzyme 10 μg/mL, 120 min): BLQ
(GR)4 concentration (enzyme 10 μg/mL, 120 min): BLQ
(GR)5 concentration (enzyme 10 μg/mL, 120 min): BLQ
(GR)6 concentration (enzyme 10 μg/mL, 120 min): BLQ
(GR)8 concentration (enzyme 10 μg/mL, 120 min): BLQ
(GR)10 concentration (enzyme 10 μg/mL, 120 min): BLQ
(GR)1 (in solution - 5 min reaction): 178.0 µM
(GR)2 (in solution - 5 min reaction): 0.0 µM
(GR)3 (in solution - 5 min reaction): 0.0 µM
(GR)4 (in solution - 5 min reaction): 0.0 µM
(GR)5 (in solution - 5 min reaction): 0.0 µM
(GR)6 (in solution - 5 min reaction): 0.0 µM
(GR)8 (in solution - 5 min reaction): 0.0 µM
(GR)10 (in solution - 5 min reaction): 0.0 µM
(GR)1 (in solution - 60 min reaction): 321.4 µM
(GR)2 (in solution - 60 min reaction): 154.0 µM
(GR)3 (in solution - 60 min reaction): 0.0 µM
(GR)4 (in solution - 60 min reaction): 0.0 µM
(GR)5 (in solution - 60 min reaction): 0.0 µM
(GR)6 (in solution - 60 min reaction): 0.0 µM
(GR)8 (in solution - 60 min reaction): 0.0 µM
(GR)10 (in solution - 60 min reaction): 0.0 µM
B1: Trypsin: protease cleaving at the carboxyl side of lysine or arginine; in Table 21 also immobilized in-house on NHS-activated agarose resin (protein, UniProt P00760 24-246, looked up)
Serine protease 1: IVGGYTCGANTVPYQVSLNSGYHFCGGSLINSQWVVSAAHCYKSGIQVRLGEDNINVVEGNEQFISASKSIVHPSYNSNTLNNDIMLIKLKSAASLNSRVASISLPTSCASAGTQCLISGWGNTKSSGTSYPDVLKCLKAPILSDSSCKSAYPGQITSNMFCAGYLEGGKDSCQGDSGGPVVCSGKLQGIVSWGSGCAQKNKPGVYTKVCNYVSWIKQTIASN
